Reference: US20050032185

B1: PDK1 (form and source not specified in the sentence) (enzyme, UniProt O15530 1-556, looked up, species assumed)
3-phosphoinositide-dependent protein kinase 1: MARTTSQLYDAVPIQSSVVLCSCPSPSMVRTQTESSTPPGIPGGSRQGPAMDGTAAEPRPGAGSLQHAQPPPQPRKKRPEDFKFGKILGEGSFSTVVLARELATSREYAIKILEKRHIIKENKVPYVTRERDVMSRLDHPFFVKLYFTFQDDEKLYFGLSYAKNGELLKYIRKIGSFDETCTRFYTAEIVSALEYLHGKGIIHRDLKPENILLNEDMHIQITDFGTAKVLSPESKQARANSFVGTAQYVSPELLTEKSACKSSDLWALGCIIYQLVAGLPPFRAGNEYLIFQKIIKLEYDFPEKFFPKARDLVEKLLVLDATKRLGCEEMEGYGPLKAHPFFESVTWENLHQQTPPKLTAYLPAMSEDDEDCYGNYDNLLSQFGCMQVSSSSSSHSLSASDTGLPQRSGSNIEQYIHDLDSNSFELDLQFSEDEKRLLLEKQAGGNPWHQFVENNLILKMGPVDKRKGLFARRRQLLLTEGPHLYYVDPVNKVLKGEIPWSQELRPEAKNFKTFFVHTPNRTYYLMDPSGNAHKWCRKIQEVWRQRYQSHPDAAVQ
B2: GST-DSTPK61 (residues 1-752 of Drosophila Serine/Threonine Protein Kinase-61, expressed in E. coli) (protein)
chain: MKCKSWSNKINNYVVRKIKSIKINGTQQQLQLPGSGASGIAAAAVITVASDCGENCSSNGTEHQQHFNIATTTATSATEATMPAMAKEKASATVSLGESNFRDINLKDLAVVVEAASRLHHQQNVCGCGAVSSTENNNNSRYGSSKYLTNGHTSPLAAAVASNSSSVATTPHCRMLHNCSLQQYQNDIRQQTEILDMLRQQHQQGYQSQQQQQQPQQQQEQQQQQEQSQQQQQLQNPAPRRSPNDFIFGRYIGEGSYSIVYLAVDIHSRREYAIKVCEKRLILRERKQDYIKREREVMHQMTNVPGFVNLSCTFQDQRSLYFVMTYARKGDMLPYINRVGSFDVACTRHYAAELLLACEHMHRRNVVHRDLKPENILLDEDMHTLIADFGSAKVMTAHERALATEHCSEQRRSNSDEDDEDSDRLENEDEDFYDRDSEELDDGDDEQQQEEMDSPRHRQRRYNRHRKASFVGTAQYVSPEVLQNGPITPAADLWALGCIVYQMIAGLPPFRGSNDYVIFKEILDCAVDFPQGFDKDAEDLVRKLLRVDPRDRLGAQDEFGYYESIRAHPFFAGIDWQTLRQQTPPPIYPYLPGVSQDEDFRSSYTVPGDLEPGLDERQISRLLSAELGVGSSVAMPVKRSTAKNSFDLNDAEKLQRLEQQKTDKWHVFADGEVILKKGFVNKRKGLFARKRMLLLTTGPRLIYIDPVQMIKKGEIPWSPDLRAEYKNFKIFFVHTPNRTYYLDDPEGYAIHW

Key:
[1] = test system: p70 S6 kinase
[2] = test system: protein kinase Bβ
[3] = test system: protein kinase Bγ
[4] = target: GST-PKBα (full length human protein kinase Bα with N-terminal glutathione S-transferase, from unstimulated 293 cells) [GST: P08515]
Chain of GST-PKBα (full length human protein kinase Bα with N-terminal glutathione S-transferase, from unstimulated 293 cells) [GST: P08515] (P08515 whole entry, looked up): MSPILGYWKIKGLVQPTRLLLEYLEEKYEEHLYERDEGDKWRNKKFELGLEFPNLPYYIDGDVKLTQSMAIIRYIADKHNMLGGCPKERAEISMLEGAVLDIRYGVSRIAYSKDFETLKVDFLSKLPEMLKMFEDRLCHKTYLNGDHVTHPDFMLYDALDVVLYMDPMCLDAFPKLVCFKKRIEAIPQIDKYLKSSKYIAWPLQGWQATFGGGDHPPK

Chain of protein kinase Bγ (Q9Y243 2-479): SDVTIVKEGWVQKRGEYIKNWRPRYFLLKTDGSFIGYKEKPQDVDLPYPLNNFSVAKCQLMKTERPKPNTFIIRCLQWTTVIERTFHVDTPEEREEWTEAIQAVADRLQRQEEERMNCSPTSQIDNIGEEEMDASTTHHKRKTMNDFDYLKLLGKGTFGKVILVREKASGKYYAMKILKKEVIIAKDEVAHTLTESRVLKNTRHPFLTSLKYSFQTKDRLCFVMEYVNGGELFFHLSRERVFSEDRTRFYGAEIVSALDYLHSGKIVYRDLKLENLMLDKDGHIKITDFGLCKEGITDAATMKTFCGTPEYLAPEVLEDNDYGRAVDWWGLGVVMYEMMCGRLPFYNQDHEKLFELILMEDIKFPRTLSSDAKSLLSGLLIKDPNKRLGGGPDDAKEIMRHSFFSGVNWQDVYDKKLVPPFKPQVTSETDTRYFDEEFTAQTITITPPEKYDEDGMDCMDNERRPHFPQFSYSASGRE

| Protein | phosphorylation [1] | phosphorylation and activation [2] | phosphorylation and activation [3] | increase in GST-PKBα activity at maximal phosphorylation [4] | maximal phosphorylation of GST-PKBα (mol phosphate per mol protein) [4] | specific activity towards GST-PKBα in the presence of PtdIns(3,4,5)P3 [4] |
| --- | --- | --- | --- | --- | --- | --- |
| B1 | PDK1 has been shown by us to phosphorylate p70 S6 kinase in the absence of InsPtd(3,4,5)P3 | PDK1 phosphorylates and activates not only PKBα but also PKBβ and PKBγ | PDK1 phosphorylates and activates not only PKBα but also PKBβ and PKBγ | – | – | – |
| B2 | – | – | – | paralleled by a 35 fold increase in activity | the phosphorylation of GST-PKBα reached 0.75 mol phosphate per mol protein | bacterially expressed GST-DST PK61 (280 U/mg) |
